From doi:10.1101/2021.11.20.466133v3

B1: MsDisA (Mycolicibacterium smegmatis MC2 155) (protein)
chain: MAVKSGARSGRNVVHLARPTLRETLGRLAPGTPLRDGLERILRGRTGALIVLGYDDSVEAICDGGFVLDVRYAPTRLRELSKMDGAVVLSSDGSRILRANVQLVPDPSIPTDESGTRHRSAERTAIQTGYPVISVSHSMSIVTVYVAGERHVVPDSATILSRANQTIATLERYKGRLDEVSRQLSTAEIEDFVTLRDVMTVVQRLEMVRRISLEIDADVVELGTDGRQLKLQLDELVGDNETARELIVRDYHANPDPPTAAQVAATLEELDSLSDSELLDFTVLARVFGYPSTAEAQDSAMSSRGYRAMAAIPRLQFAHVDLLVRSFGSLQNLLAASADDLQSVDGIGSMWARHIREGLSLLAESTIADRLA
B2: MsPDE (Mycolicibacterium smegmatis MC2 155) (protein)
chain: MPVTTTDPKTGLLTGPDAQIAGARVDARGAADLLTAASSVSVICHVYPDADTIGAGLALAQVLAASGKHVEVSFATPAQLPESLQSLPGGHLLVAPEAMRRDADLVVTVDIPSINRLGALSGLAGPGREVLVIDHHASNQLFGTANYIDPSADSTTMLVAELLDAWGKPIDEKVAHCLYAGLTTDTGSFRWATARAHRLAARLVELGVDNASISRTLLDTHPFAWLPMLSRVLATARLLPDALDGRGFVYAVVPHDEWSEARPEEVESIVDIVRTTQQAEVAAVFKEIEPMHWSVSMRAKSVNLASVASAFGGGGHPHAAGYSATGSADDVVQALARALG

Columns and labels:
purified protein [1] = substrate: Nc1ncnc2c1ncn2[C@@H]1O[C@H](COP(=O)(O)OP(=O)(O)OP(=O)(O)O)[C@@H](O)[C@H]1O; experiment: purified protein; conditions: pH 7.5, 37 °C, 5 mM MgCl2
purified protein [2] = substrate: [H][C@@]1(O)[C@]2([H])OP(=O)(O)OC[C@@]3([H])O[C@@]([H])(n4cnc5c(N)ncnc54)[C@]([H])(O)[C@]3([H])OP(=O)(O)OC[C@@]2([H])O[C@@]1([H])n1cnc2c(N)ncnc21; experiment: purified protein; conditions: pH 7.5, 5 mM MgCl2

| Protein | Km (purified protein [1]) [µM] | Km (purified protein [2]) [µM] |
| --- | --- | --- |
| B1 | 480 |  |
| B2 |  | 370 |
